Laboratory results from PMC6497562 (Molecular cancer research : MCR, 2019).

Target: neurofibromin (human (endogenous in 786-0 and RCC4), UniProt P21359-2 1-2818)
Experiment: co-IP

B1: hypoxia-associated factor (HAF), endogenous (natural protein, human (endogenous in 786-0), UniProt O43290 1-800, looked up)
chain: MGSSKKHRGEKEAAGTTAAAGTGGATEQPPRHREHKKHKHRSGGSGGSGGERRKRSRERGGERGSGRRGAEAEARSSTHGRERSQAEPSERRVKREKRDDGYEAAASSKTSSGDASSLSIEETNKLRAKLGLKPLEVNAIKKEAGTKEEPVTADVINPMALRQREELREKLAAAKEKRLLNQKLGKIKTLGEDDPWLDDTAAWIERSRQLQKEKDLAEKRAKLLEEMDQEFGVSTLVEEEFGQRRQDLYSARDLQGLTVEHAIDSFREGETMILTLKDKGVLQEEEDVLVNVNLVDKERAEKNVELRKKKPDYLPYAEDESVDDLAQQKPRSILSKYDEELEGERPHSFRLEQGGTADGLRERELEEIRAKLRLQAQSLSTVGPRLASEYLTPEEMVTFKKTKRRVKKIRKKEKEVVVRADDLLPLGDQTQDGDFGSRLRGRGRRRVSEVEEEKEPVPQPLPSDDTRVENMDISDEEEGGAPPPGSPQVLEEDEAELELQKQLEKGRRLRQLQQLQQLRDSGEKVVEIVKKLESRQRGWEEDEDPERKGAIVFNATSEFCRTLGEIPTYGLAGNREEQEELMDFERDEERSANGGSESDGEENIGWSTVNLDEEKQQQDFSASSTTILDEEPIVNRGLAAALLLCQNKGLLETTVQKVARVKAPNKSLPSAVYCIEDKMAIDDKYSRREEYRGFTQDFKEKDGYKPDVKIEYVDETGRKLTPKEAFRQLSHRFHGKGSGKMKTERRMKKLDEEALLKKMSSSDTPLGTVALLQEKQKAQKTPYIVLSGSGKSMNANTITK
Question: With B1 as the binder, how does the “fold increase of binding in hypoxia over normoxia” value read?
Answer: Its value is about 2 fold.
